Seven molecules from patent US20220017591A1 (AstraZeneca / MedImmune, published 2022) can be followed below.

Experiment in all cases: cell-based or functional assay
Assay [1] concerns the target T1, human RXFP1 (human, UniProt Q9HBX9 1-757).
T1 sequence (looked up): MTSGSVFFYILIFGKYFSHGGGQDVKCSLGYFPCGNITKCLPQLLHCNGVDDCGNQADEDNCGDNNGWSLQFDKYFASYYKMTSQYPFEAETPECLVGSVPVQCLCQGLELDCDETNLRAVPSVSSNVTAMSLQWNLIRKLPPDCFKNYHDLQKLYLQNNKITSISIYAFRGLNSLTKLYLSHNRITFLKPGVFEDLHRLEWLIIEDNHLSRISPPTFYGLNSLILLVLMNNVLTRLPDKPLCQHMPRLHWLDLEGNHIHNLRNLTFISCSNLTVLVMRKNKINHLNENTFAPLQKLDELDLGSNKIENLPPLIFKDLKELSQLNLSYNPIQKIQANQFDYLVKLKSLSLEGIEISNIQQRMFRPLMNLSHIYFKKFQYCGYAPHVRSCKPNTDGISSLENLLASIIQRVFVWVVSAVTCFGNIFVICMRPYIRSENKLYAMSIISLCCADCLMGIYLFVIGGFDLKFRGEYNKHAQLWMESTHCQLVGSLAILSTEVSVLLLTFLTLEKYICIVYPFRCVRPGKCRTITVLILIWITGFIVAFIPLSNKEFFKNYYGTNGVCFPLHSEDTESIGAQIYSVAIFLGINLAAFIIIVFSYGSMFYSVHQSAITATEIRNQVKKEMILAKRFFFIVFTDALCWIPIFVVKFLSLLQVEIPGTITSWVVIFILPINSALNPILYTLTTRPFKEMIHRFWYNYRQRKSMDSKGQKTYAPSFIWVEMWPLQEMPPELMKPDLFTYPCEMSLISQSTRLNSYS

Assay [2] addresses T2, mouse RXFP1 (mouse, UniProt Q6R6I7 1-758).
T2 sequence (looked up): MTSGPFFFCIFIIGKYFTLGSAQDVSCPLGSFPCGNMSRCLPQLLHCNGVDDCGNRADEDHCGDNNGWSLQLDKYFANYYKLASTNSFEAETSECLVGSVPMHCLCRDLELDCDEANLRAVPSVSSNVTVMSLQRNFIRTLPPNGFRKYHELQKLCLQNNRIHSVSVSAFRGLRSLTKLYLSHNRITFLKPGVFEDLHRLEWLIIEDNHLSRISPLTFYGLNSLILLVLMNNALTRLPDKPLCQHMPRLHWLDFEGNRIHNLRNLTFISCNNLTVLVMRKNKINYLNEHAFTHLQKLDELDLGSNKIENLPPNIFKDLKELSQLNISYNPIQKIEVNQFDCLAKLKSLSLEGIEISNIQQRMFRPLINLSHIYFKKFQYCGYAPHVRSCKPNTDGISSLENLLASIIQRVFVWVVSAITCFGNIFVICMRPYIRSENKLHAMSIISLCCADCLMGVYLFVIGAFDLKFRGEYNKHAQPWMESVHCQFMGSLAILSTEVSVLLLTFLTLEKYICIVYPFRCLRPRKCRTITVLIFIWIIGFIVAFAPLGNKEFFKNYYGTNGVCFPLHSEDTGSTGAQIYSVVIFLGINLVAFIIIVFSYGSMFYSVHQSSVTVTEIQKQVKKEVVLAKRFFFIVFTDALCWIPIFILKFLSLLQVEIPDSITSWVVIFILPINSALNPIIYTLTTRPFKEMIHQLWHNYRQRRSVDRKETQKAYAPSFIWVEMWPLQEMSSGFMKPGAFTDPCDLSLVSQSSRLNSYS

In assay [3] the target is human RXFP2 (human, UniProt Q8WXD0 1-754).
Sequence of human RXFP2 (Q8WXD0 whole entry): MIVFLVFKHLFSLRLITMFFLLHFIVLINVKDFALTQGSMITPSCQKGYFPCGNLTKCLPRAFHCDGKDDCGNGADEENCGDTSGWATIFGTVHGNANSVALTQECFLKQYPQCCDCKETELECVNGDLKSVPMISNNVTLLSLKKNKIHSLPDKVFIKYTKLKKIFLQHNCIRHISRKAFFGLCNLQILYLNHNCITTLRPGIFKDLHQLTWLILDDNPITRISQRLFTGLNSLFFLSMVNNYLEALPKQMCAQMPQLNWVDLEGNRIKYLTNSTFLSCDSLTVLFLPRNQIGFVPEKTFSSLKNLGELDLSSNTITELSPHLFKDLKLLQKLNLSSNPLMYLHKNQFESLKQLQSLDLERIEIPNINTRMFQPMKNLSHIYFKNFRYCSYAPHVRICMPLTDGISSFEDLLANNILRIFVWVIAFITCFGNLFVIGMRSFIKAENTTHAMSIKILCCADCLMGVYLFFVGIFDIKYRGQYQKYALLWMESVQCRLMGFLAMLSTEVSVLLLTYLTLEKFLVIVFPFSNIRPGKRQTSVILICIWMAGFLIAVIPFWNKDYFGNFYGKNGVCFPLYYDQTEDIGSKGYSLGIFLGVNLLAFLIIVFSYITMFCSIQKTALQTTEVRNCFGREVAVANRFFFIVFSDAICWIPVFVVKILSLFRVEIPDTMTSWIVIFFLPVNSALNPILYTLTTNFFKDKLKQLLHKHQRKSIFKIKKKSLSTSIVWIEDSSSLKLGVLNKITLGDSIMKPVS

B1: RELAX0082 (Fc fusion)
chain 1: DKTHTCPPCPAPEFEGGPSVFLFPPKPKDTLMISRTPEVTCVVVDVSHEDPEVKFNWYVDGVEVHNAKTKPREEQYNSTYRVVSVLTVLHQDWLNGKEYKCKVSNKALPASIEKTISKAKGQPREPQVYTLPPCREEMTKNQVSLWCLVKGFYPSDIAVEWESNGQPENNYKTTPPVLDSDGSFFLYSKLTVDKSRWQQGNVFSCSVMHEALHNHYTQKSLSLSPGGGGGSGGGGGSQLYSALANKCCHVGCTKRSLARFC
chain 2: DKTHTCPPCPAPEFEGGPSVFLFPPKPKDTLMISRTPEVTCVVVDVSHEDPEVKFNWYVDGVEVHNAKTKPREEQYNSTYRVVSVLTVLHQDWLNGKEYKCKVSNKALPASIEKTISKAKGQPREPQVCTLPPSREEMTKNQVSLSCAVKGFYPSDIAVEWESNGQPENNYKTTPPVLDSDGSFFLVSKLTVDKSRWQQGNVFSCSVMHEALHNHYTQKSLSLSPGGGGGSGGGGGSSWMEEVIKLCGRELVRAQIAICGMSTWS
Take B1: the “EC50 hRXFP1 (M), cAMP assay” value in assay [1] turned out to be 5.68e-11 M. Further, the “EC50 mRXFP1 (M), cAMP assay” value in assay [2] amounted to 4.9e-11 M. Moreover, the “EC50 hRXFP2 (M), cAMP assay” value in assay [3] amounted to 3.81e-08 M.

B2: RELAX0055 (Fc fusion)
chain 1: DKTHTCPPCPAPEFEGGPSVFLFPPKPKDTLMISRTPEVTCVVVDVSHEDPEVKFNWYVDGVEVHNAKTKPREEQYNSTYRVVSVLTVLHQDWLNGKEYKCKVSNKALPASIEKTISKAKGQPREPQVYTLPPCREEMTKNQVSLWCLVKGFYPSDIAVEWESNGQPENNYKTTPPVLDSDGSFFLYSKLTVDKSRWQQGNVFSCSVMHEALHNHYTQKSLSLSPGAPAPAPAPAGSQLYSALANKCCHVGCTKRSLARFC
chain 2: DKTHTCPPCPAPEFEGGPSVFLFPPKPKDTLMISRTPEVTCVVVDVSHEDPEVKFNWYVDGVEVHNAKTKPREEQYNSTYRVVSVLTVLHQDWLNGKEYKCKVSNKALPASIEKTISKAKGQPREPQVCTLPPSREEMTKNQVSLSCAVKGFYPSDIAVEWESNGQPENNYKTTPPVLDSDGSFFLVSKLTVDKSRWQQGNVFSCSVMHEALHNHYTQKSLSLSPGAPAPAPAPAGSSWMEEVIKLCGRELVRAQIAICGMSTWS
As for B2, the “EC50 hRXFP1 (M), cAMP assay” value in assay [1] was determined as 1.88e-11 M. Also, the “EC50 mRXFP1 (M), cAMP assay” value in assay [2] is 1.51e-11 M. For the same molecule, the “EC50 hRXFP2 (M), cAMP assay” value in assay [3] was 3.39e-08 M.

B3: RELAX0054 (Fc fusion)
chain 1: DKTHTCPPCPAPEFEGGPSVFLFPPKPKDTLMISRTPEVTCVVVDVSHEDPEVKFNWYVDGVEVHNAKTKPREEQYNSTYRVVSVLTVLHQDWLNGKEYKCKVSNKALPASIEKTISKAKGQPREPQVCTLPPSREEMTKNQVSLSCAVKGFYPSDIAVEWESNGQPENNYKTTPPVLDSDGSFFLVSKLTVDKSRWQQGNVFSCSVMHEALHNHYTQKSLSLSPGAAPAPAPAPAPAPAGSQLYSALANKCCHVGCTKRSLARFC
chain 2: DKTHTCPPCPAPEFEGGPSVFLFPPKPKDTLMISRTPEVTCVVVDVSHEDPEVKFNWYVDGVEVHNAKTKPREEQYNSTYRVVSVLTVLHQDWLNGKEYKCKVSNKALPASIEKTISKAKGQPREPQVYTLPPCREEMTKNQVSLWCLVKGFYPSDIAVEWESNGQPENNYKTTPPVLDSDGSFFLYSKLTVDKSRWQQGNVFSCSVMHEALHNHYTQKSLSLSPGAAPAPAPAPAPAPAGSSWMEEVIKLCGRELVRAQIAICGMSTWS
In the case of B3, the “EC50 hRXFP1 (M), cAMP assay” value in assay [1] stood at 2.89e-11 M. The “EC50 mRXFP1 (M), cAMP assay” value in assay [2] is 1.59e-11 M. Also, in assay [3], the “EC50 hRXFP2 (M), cAMP assay” value came out at 1.53e-08 M.

B4: RELAX0056 (Fc fusion)
chain 1: DKTHTCPPCPAPEFEGGPSVFLFPPKPKDTLMISRTPEVTCVVVDVSHEDPEVKFNWYVDGVEVHNAKTKPREEQYNSTYRVVSVLTVLHQDWLNGKEYKCKVSNKALPASIEKTISKAKGQPREPQVYTLPPCREEMTKNQVSLWCLVKGFYPSDIAVEWESNGQPENNYKTTPPVLDSDGSFFLYSKLTVDKSRWQQGNVFSCSVMHEALHNHYTQKSLSLSPGAPAPAPAPAPAPAPAPAPAGSQLYSALANKCCHVGCTKRSLARFC
chain 2: DKTHTCPPCPAPEFEGGPSVFLFPPKPKDTLMISRTPEVTCVVVDVSHEDPEVKFNWYVDGVEVHNAKTKPREEQYNSTYRVVSVLTVLHQDWLNGKEYKCKVSNKALPASIEKTISKAKGQPREPQVCTLPPSREEMTKNQVSLSCAVKGFYPSDIAVEWESNGQPENNYKTTPPVLDSDGSFFLVSKLTVDKSRWQQGNVFSCSVMHEALHNHYTQKSLSLSPGAPAPAPAPAPAPAPAPAPAGSSWMEEVIKLCGRELVRAQIAICGMSTWS
Regarding B4, the “EC50 hRXFP1 (M), cAMP assay” value in assay [1] was determined as 3.87e-11 M. In addition, the “EC50 mRXFP1 (M), cAMP assay” value in assay [2] was 3.27e-11 M. Further, the “EC50 hRXFP2 (M), cAMP assay” value in assay [3] stood at 6.48e-08 M.

B5: RELAX0081 (Fc fusion)
chain 1: DKTHTCPPCPAPEFEGGPSVFLFPPKPKDTLMISRTPEVTCVVVDVSHEDPEVKFNWYVDGVEVHNAKTKPREEQYNSTYRVVSVLTVLHQDWLNGKEYKCKVSNKALPASIEKTISKAKGQPREPQVYTLPPCREEMTKNQVSLWCLVKGFYPSDIAVEWESNGQPENNYKTTPPVLDSDGSFFLYSKLTVDKSRWQQGNVFSCSVMHEALHNHYTQKSLSLSPGGGGGSGGGGSGGGGGSQLYSALANKCCHVGCTKRSLARFC
chain 2: DKTHTCPPCPAPEFEGGPSVFLFPPKPKDTLMISRTPEVTCVVVDVSHEDPEVKFNWYVDGVEVHNAKTKPREEQYNSTYRVVSVLTVLHQDWLNGKEYKCKVSNKALPASIEKTISKAKGQPREPQVCTLPPSREEMTKNQVSLSCAVKGFYPSDIAVEWESNGQPENNYKTTPPVLDSDGSFFLVSKLTVDKSRWQQGNVFSCSVMHEALHNHYTQKSLSLSPGGGGGSGGGGSGGGGGSSWMEEVIKLCGRELVRAQIAICGMSTWS
With B5, the “EC50 hRXFP1 (M), cAMP assay” value in assay [1] stood at 4.51e-11 M. Further, in assay [2], the “EC50 mRXFP1 (M), cAMP assay” value is 4.73e-11 M. Besides, the “EC50 hRXFP2 (M), cAMP assay” value in assay [3] is 4.92e-08 M.

B6: RELAX0109 (Fc fusion)
chain 1: DKTHTCPPCPAPEFEGGPSVFLFPPKPKDTLMISRTPEVTCVVVDVSHEDPEVKFNWYVDGVEVHNAKTKPREEQYNSTYRVVSVLTVLHQDWLNGKEYKCKVSNKALPASIEKTISKAKGQPREPQVYTLPPCREEMTKNQVSLWCLVKGFYPSDIAVEWESNGQPENNYKTTPPVLDSDGSFFLYSKLTVDKSRWQQGNVFSCSVMHEALHNHYTQKSLSLSPGGGGGSGGGGSGGGGGSQLYSALANKCCHVGCTKRSLARFC
chain 2: DKTHTCPPCPAPEFEGGPSVFLFPPKPKDTLMISRTPEVTCVVVDVSHEDPEVKFNWYVDGVEVHNAKTKPREEQYNSTYRVVSVLTVLHQDWLNGKEYKCKVSNKALPASIEKTISKAKGQPREPQVYTLPPCREEMTKNQVSLWCLVKGFYPSDIAVEWESNGQPENNYKTTPPVLDSDGSFFLYSKLTVDKSRWQQGNVFSCSVMHEALHNHYTQKSLSLSPGAAPAPAPAPAPAPAGSSWMEEVIKLCGRELVRAQIAICGMSTWS
Consider B6, for which the “EC50 hRXFP1 (M), cAMP assay” value in assay [1] turned out to be 1.72e-09 M. In assay [2], the “EC50 mRXFP1 (M), cAMP assay” value amounted to 8.22e-10 M.

B7: RELAX0083 (Fc fusion)
chain 1: DKTHTCPPCPAPEFEGGPSVFLFPPKPKDTLMISRTPEVTCVVVDVSHEDPEVKFNWYVDGVEVHNAKTKPREEQYNSTYRVVSVLTVLHQDWLNGKEYKCKVSNKALPASIEKTISKAKGQPREPQVYTLPPCREEMTKNQVSLWCLVKGFYPSDIAVEWESNGQPENNYKTTPPVLDSDGSFFLYSKLTVDKSRWQQGNVFSCSVMHEALHNHYTQKSLSLSPGGGGGGSQLYSALANKCCHVGCTKRSLARFC
chain 2: DKTHTCPPCPAPEFEGGPSVFLFPPKPKDTLMISRTPEVTCVVVDVSHEDPEVKFNWYVDGVEVHNAKTKPREEQYNSTYRVVSVLTVLHQDWLNGKEYKCKVSNKALPASIEKTISKAKGQPREPQVCTLPPSREEMTKNQVSLSCAVKGFYPSDIAVEWESNGQPENNYKTTPPVLDSDGSFFLVSKLTVDKSRWQQGNVFSCSVMHEALHNHYTQKSLSLSPGGGGGGSSWMEEVIKLCGRELVRAQIAICGMSTWS
Take B7: in assay [1], the “EC50 hRXFP1 (M), cAMP assay” value came to 2.81e-11 M. For the same molecule, the “EC50 mRXFP1 (M), cAMP assay” value in assay [2] was determined as 1.34e-11 M. The “EC50 hRXFP2 (M), cAMP assay” value in assay [3] came to 2.42e-08 M.
